Our source for the IC50 values is the Immune Epitope Database (IEDB).

Where only a bound is given, the exact number is not on record here.

In assay [1] the target is HLA-A*01:01. Briefly: IEDB peptide-MHC binding, purified MHC/competitive/radioactivity; ≥ and ≤ were set here for values at or beyond the usual limits of such assays. To be noted: source organism: Triticum aestivum.
The target in assay [2] is HLA-B*08:01. The description is as above. As to conditions: source organism: Triticum aestivum.

Usually IC50 stands for the midpoint of a concentration-inhibition curve. As for MAMKIATAA, the IC50 in assay [1] is at least 100000 nM; in assay [2] it was 5.2 nM.
Consider LLQQSKPASL, for which the IC50 in assay [1] is 33500 nM; in assay [2], 25 nM.
LAMAMKIATA: the IC50 in assay [1] is at least 100000 nM; in assay [2], 161 nM.
For VMRQQCCQQL, in that order: at least 100000 nM and 162 nM.
For the sequence LEAIRSLVL, the figures for the IC50 in assay [1] and in assay [2] were at least 100000 nM and 303 nM, respectively.
On to LLSPRGKEL, for which the IC50 in assay [1] is at least 100000 nM; in assay [2] it was 91 nM.
Take WLQQQLVPQL: the IC50 is at least 100000 nM in assay [1] and 286 nM in assay [2].
With QGMHILLPL, the IC50 in assay [1] was at least 100000 nM; in assay [2] it was 73 nM.
On to AMAMKIATA, for which the results for the 50% inhibitory concentration (IC50) in assay [1] and in assay [2] were at least 100000 nM and 48 nM, respectively.
For FLLQQCKPV, in that order: at least 100000 nM and 7.8 nM.
For the sequence QLEAIRSLV, the IC50 in assay [1] was 17100 nM; in assay [2] it was 353 nM.
With FPQQQRPFI, the 50% inhibitory concentration (IC50) was at least 100000 nM in assay [1] and 112 nM in assay [2].
In the case of LQQCKPVSL, the IC50 in assay [1] is at least 100000 nM; in assay [2], 72 nM.
With CAAIHTIIH, the IC50 was at least 100000 nM in assay [1] and 465 nM in assay [2].
As for MNIASASRL, the IC50 in assay [1] is at least 100000 nM; in assay [2], 368 nM.
LLQQCKPVSL: the IC50 in assay [1] is at least 100000 nM; in assay [2] it was 14 nM.
As for MKTFLILAL, the IC50 was at least 100000 nM in assay [1] and 223 nM in assay [2].
Consider VSFQQPQQQY, for which the IC50 in assay [1] is 365 nM; in assay [2] it was at least 100000 nM.
Take LIPCRDVVL: the IC50 is at least 100000 nM in assay [1] and 246 nM in assay [2].
For the sequence SSQVLQQSTY, the IC50 in assay [1] was 103 nM; in assay [2] it was at least 100000 nM.
